Measured values taken from EP4667494A2 (Fundación Instituto de Investigación Sanitaria Fundación …, dated 2025).

T1: CD79b (UniProt P40259 29-229, limits assumed)
T1 construct: whole, on cells; Endogenous CD79b on human lymphoma cell lines
T1 sequence (looked up): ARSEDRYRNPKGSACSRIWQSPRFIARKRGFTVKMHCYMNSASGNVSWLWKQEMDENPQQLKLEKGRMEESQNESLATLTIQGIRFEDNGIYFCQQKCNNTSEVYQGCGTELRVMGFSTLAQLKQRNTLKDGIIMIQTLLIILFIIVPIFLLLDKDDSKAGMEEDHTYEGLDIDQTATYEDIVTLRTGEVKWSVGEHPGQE


Molecular target: T1, CD79b
Experiment: flow cytometry on NHL cell lines Ramos and Daudi

| binding result | Binder |
| --- | --- |
| binds | CARLY1 monoclonal murine antibody against CD79b (antibody, V domains shown, Murine monoclonal from a hybridoma, made by an external service; The variable domains are tied to the name CARLY 1 in the definition section) VH: QVQLQQPGAELVRPGASVKLSCKASGYTFTSYWMNWVKQRPGQGLEWIGMIDPSDSETHYNQMFRDKATLTVDKPSNTAYMQLSRLTSEDSAVYYCARALGYWGQGTSVTVSS VL: not shown |
| binds | CARLY2 monoclonal murine antibody against CD79b (antibody, V domains shown, Murine monoclonal from a hybridoma; it was detected with anti-mouse IgG-Alexa647 in confocal microscopy) VH: QVQLQQPGAELVRPGASVKLSCKASGYTFTTYWMNWVKQRPGQGLEWIGMIDPSDSETHYNQMFKDKATLTVDKSSTTAYMQLSSLTSEDSAVYYCARTLSYWGQGTLVTVSA VL: not shown |
| binds | CARLY3 monoclonal murine antibody against CD79b (antibody, V domains shown, Murine monoclonal from a hybridoma; it was detected with anti-mouse IgG-Alexa647 in confocal microscopy) VH: QVQLQQPGAELVRPGASLKLSCKTSGYTFTDYWMNWVKQRPGQGLEWIGMIDPSDSETHYNQMFKDKATLTVDKSSSTAYMQLSSLTSEDSAVYYCTRNLNYWGQGTTLTVSS VL: not shown |
